This is an account of results in publication PMC8497785, “Structural Characterization of the RNA-Binding Protein SERBP1 Reveals Intrinsic Disorder and Atypical RNA Binding Modes”.

This data set has as its target T1, SERBP1 189-400 (Homo sapiens, UniProt Q8NC51 189-400).
T1 sequence: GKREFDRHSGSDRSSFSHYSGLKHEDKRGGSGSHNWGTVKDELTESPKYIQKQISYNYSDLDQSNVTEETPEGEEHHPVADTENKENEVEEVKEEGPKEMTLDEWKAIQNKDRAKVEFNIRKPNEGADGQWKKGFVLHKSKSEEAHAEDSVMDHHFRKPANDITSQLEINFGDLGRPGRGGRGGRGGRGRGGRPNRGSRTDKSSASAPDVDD
Description: NMR 1H,15N-HSQC titration; RNA:protein 2:5 to 8:5; CSPs from C-terminal RGG box to C-terminus (N383, T388, S394, A395, V398), RGG glycine broadening; 20 mM sodium phosphate pH 6.9, 60 mM NaCl, 1 mM PMSF, 0.2 mM EDTA, 10% D2O, 4 °C; 50 µM protein. The settings on record: protein: recombinant; tags: N-terminal 8xHis removed by TEV (vector-derived residues may remain).

Turning to GCGCGGG (ssRNA) [7-mer G-rich RNA (G-quartet ligand)], the binding result is recorded as “binds”.
